In patent US6136579:

Target: asialofetuin (Sigma Type-I) (Bos taurus (Bovine)) (UniProt P12763)

“Triton extract of uninfected RK13 cells (pool or library)” showed a […] (fluorescence assay, […] (mU/mg total protein) of 0.036.
